Here are results for four molecules from patent US20140087995A1 (published 2014).

Numbered stars: 1 amine (or outer) side, 2 acyl side, 3 side chain; on linkers, the order of the positions; unused ones are H or OH. Bridge positions count the residues as written; N and C are the ends. Side chains are listed from the residue outwards. Ends that are not written are not given here. * marks the point of attachment. C20 diacid = O=C(O)CCCCCCCCCCCCCCCCCCC(=O)*; γGlu = O=C(O)[C@H](CCC(=O)[*:2])N[*:1]

Assay [1] concerns the target T1, human amylin receptor (amylin 3(a) receptor: human calcitonin receptor plus RAMP-3) (human, UniProt P30988 25-474; O60896 24-148).
T1 sequence (looked up) 1: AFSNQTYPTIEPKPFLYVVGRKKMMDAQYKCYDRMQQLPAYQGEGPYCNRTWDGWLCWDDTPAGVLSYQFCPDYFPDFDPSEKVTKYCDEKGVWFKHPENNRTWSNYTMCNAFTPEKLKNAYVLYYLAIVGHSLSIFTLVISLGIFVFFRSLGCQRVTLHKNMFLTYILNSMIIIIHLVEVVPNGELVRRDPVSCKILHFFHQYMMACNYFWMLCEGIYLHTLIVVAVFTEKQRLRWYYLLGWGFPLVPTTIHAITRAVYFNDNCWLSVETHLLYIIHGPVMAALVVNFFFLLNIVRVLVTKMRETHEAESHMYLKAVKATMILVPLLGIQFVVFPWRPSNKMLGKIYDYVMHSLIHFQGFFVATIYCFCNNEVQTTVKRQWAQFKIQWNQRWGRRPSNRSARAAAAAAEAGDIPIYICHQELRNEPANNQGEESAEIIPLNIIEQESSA
T1 sequence (looked up) 2: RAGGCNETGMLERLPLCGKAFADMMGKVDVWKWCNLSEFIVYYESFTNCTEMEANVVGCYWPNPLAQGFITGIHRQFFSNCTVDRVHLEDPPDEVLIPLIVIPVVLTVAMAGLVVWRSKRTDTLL
In words: cell-based or functional assay.

Assay [2] has as its target T2, human calcitonin receptor (human, UniProt P30988 25-474).
T2 sequence (looked up): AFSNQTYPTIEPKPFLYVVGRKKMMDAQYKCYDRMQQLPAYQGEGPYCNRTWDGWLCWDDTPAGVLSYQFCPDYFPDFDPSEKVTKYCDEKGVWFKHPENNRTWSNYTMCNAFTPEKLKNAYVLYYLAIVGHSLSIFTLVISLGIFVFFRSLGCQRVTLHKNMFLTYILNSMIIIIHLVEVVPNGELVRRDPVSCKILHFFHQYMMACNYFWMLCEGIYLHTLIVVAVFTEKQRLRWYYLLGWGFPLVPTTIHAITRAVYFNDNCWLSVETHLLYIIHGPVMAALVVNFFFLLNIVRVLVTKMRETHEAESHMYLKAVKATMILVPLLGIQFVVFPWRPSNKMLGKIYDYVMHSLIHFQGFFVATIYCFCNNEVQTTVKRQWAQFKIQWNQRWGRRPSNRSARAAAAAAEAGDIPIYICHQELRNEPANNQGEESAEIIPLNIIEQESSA
In words: cell-based or functional assay.

In assay [3] the target is T1, human amylin receptor (amylin 3(a) …). In words: SPA competition binding, displacement of 125I-rat amylin, membranes of BHK amylin 3(a)/CRE-luc cells. In short, it runs like this: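 Membranes from BHK Amylin 3(a)/CRE-luc cells (35 ng/μL final) were mixed with SPA beads and test compounds in 50 mM Hepes pH 7.4 with 1 mM CaCl2, 5 mM MgCl₂, 0.1% OA and 0.02% Tween20. Incubation ran 120 min at 25° C with shaking; IC₅₀ came from one-site competition fitting.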

B1: N^ε1-[(4S)-4-carboxy-4-(19-carboxynonadecanoylamino)butanoyl]-[Asp14,Arg17,Pro21,Pro27,Pro34,Glu35]-h-amylin (peptide)
peptide: K([γGlu-C20 diacid])CNTATCATQRLADFLRHSSPNFGAIPSSTNVGPETY-NH2
modifications: disulfide 2-7; N-terminus assumed
SMILES: CC[C@H](C)[C@H](NC(=O)[C@H](C)NC(=O)CNC(=O)[C@H](Cc1ccccc1)NC(=O)[C@H](CC(N)=O)NC(=O)[C@@H]1CCCN1C(=O)[C@H](CO)NC(=O)[C@H](CO)NC(=O)[C@H](Cc1c[nH]cn1)NC(=O)[C@H](CCCNC(=N)N)NC(=O)[C@H](CC(C)C)NC(=O)[C@H](Cc1ccccc1)NC(=O)[C@H](CC(=O)O)NC(=O)[C@H](C)NC(=O)[C@H](CC(C)C)NC(=O)[C@H](CCCNC(=N)N)NC(=O)[C@H](CCC(N)=O)NC(=O)[C@@H](NC(=O)[C@H](C)NC(=O)[C@@H]1CSSC[C@H](NC(=O)[C@@H](N)CCCCNC(=O)CC[C@H](NC(=O)CCCCCCCCCCCCCCCCCCC(=O)O)C(=O)O)C(=O)N[C@@H](CC(N)=O)C(=O)N[C@@H]([C@@H](C)O)C(=O)N[C@@H](C)C(=O)N[C@@H]([C@@H](C)O)C(=O)N1)[C@@H](C)O)C(=O)N1CCC[C@H]1C(=O)N[C@@H](CO)C(=O)N[C@@H](CO)C(=O)N[C@H](C(=O)N[C@@H](CC(N)=O)C(=O)N[C@H](C(=O)NCC(=O)N1CCC[C@H]1C(=O)N[C@@H](CCC(=O)O)C(=O)N[C@H](C(=O)N[C@@H](Cc1ccc(O)cc1)C(N)=O)[C@@H](C)O)C(C)C)[C@@H](C)O
Turning to B1, in assay [1], the “Ratio hCT/hAmylin funct.” value was determined as 3.9 and the “hAmylin-R funct. EC50 (pM)” value worked out at 288 pM. The “hCTR funct. EC50 (pM)” value in assay [2] is 1120 pM. For the same molecule, the IC50 (commonly the midpoint of a concentration-inhibition curve) in assay [3] was 0.196 nM.

B2: N^ε1-[(4S)-4-carboxy-4-(19-carboxynonadecanoylamino)butanoyl]-[Glu14,Arg17,Pro21,Pro27,His35]-h-amylin (peptide)
peptide: K([γGlu-C20 diacid])CNTATCATQRLAEFLRHSSPNFGAIPSSTNVGSHTY-NH2
modifications: disulfide 2-7; N-terminus assumed
SMILES: CC[C@H](C)[C@H](NC(=O)[C@H](C)NC(=O)CNC(=O)[C@H](Cc1ccccc1)NC(=O)[C@H](CC(N)=O)NC(=O)[C@@H]1CCCN1C(=O)[C@H](CO)NC(=O)[C@H](CO)NC(=O)[C@H](Cc1c[nH]cn1)NC(=O)[C@H](CCCNC(=N)N)NC(=O)[C@H](CC(C)C)NC(=O)[C@H](Cc1ccccc1)NC(=O)[C@H](CCC(=O)O)NC(=O)[C@H](C)NC(=O)[C@H](CC(C)C)NC(=O)[C@H](CCCNC(=N)N)NC(=O)[C@H](CCC(N)=O)NC(=O)[C@@H](NC(=O)[C@H](C)NC(=O)[C@@H]1CSSC[C@H](NC(=O)[C@@H](N)CCCCNC(=O)CC[C@H](NC(=O)CCCCCCCCCCCCCCCCCCC(=O)O)C(=O)O)C(=O)N[C@@H](CC(N)=O)C(=O)N[C@@H]([C@@H](C)O)C(=O)N[C@@H](C)C(=O)N[C@@H]([C@@H](C)O)C(=O)N1)[C@@H](C)O)C(=O)N1CCC[C@H]1C(=O)N[C@@H](CO)C(=O)N[C@@H](CO)C(=O)N[C@H](C(=O)N[C@@H](CC(N)=O)C(=O)N[C@H](C(=O)NCC(=O)N[C@@H](CO)C(=O)N[C@@H](Cc1c[nH]cn1)C(=O)N[C@H](C(=O)N[C@@H](Cc1ccc(O)cc1)C(N)=O)[C@@H](C)O)C(C)C)[C@@H](C)O
With B2, in assay [1], the “hAmylin-R funct. EC50 (pM)” value is 425 pM. Moreover, the “hCTR funct. EC50 (pM)” value in assay [2] was 5580 pM. Besides, the IC50 in assay [3] came out at 0.992 nM.

B3: N^ε1-[(4S)-4-carboxy-4-(19-carboxynonadecanoylamino)butanoyl]-[Glu14,Arg17,Pro21,Pro27,Arg34,Glu35]-h-amylin (peptide)
peptide: K([γGlu-C20 diacid])CNTATCATQRLAEFLRHSSPNFGAIPSSTNVGRETY-NH2
modifications: disulfide 2-7; N-terminus assumed
SMILES: CC[C@H](C)[C@H](NC(=O)[C@H](C)NC(=O)CNC(=O)[C@H](Cc1ccccc1)NC(=O)[C@H](CC(N)=O)NC(=O)[C@@H]1CCCN1C(=O)[C@H](CO)NC(=O)[C@H](CO)NC(=O)[C@H](Cc1c[nH]cn1)NC(=O)[C@H](CCCNC(=N)N)NC(=O)[C@H](CC(C)C)NC(=O)[C@H](Cc1ccccc1)NC(=O)[C@H](CCC(=O)O)NC(=O)[C@H](C)NC(=O)[C@H](CC(C)C)NC(=O)[C@H](CCCNC(=N)N)NC(=O)[C@H](CCC(N)=O)NC(=O)[C@@H](NC(=O)[C@H](C)NC(=O)[C@@H]1CSSC[C@H](NC(=O)[C@@H](N)CCCCNC(=O)CC[C@H](NC(=O)CCCCCCCCCCCCCCCCCCC(=O)O)C(=O)O)C(=O)N[C@@H](CC(N)=O)C(=O)N[C@@H]([C@@H](C)O)C(=O)N[C@@H](C)C(=O)N[C@@H]([C@@H](C)O)C(=O)N1)[C@@H](C)O)C(=O)N1CCC[C@H]1C(=O)N[C@@H](CO)C(=O)N[C@@H](CO)C(=O)N[C@H](C(=O)N[C@@H](CC(N)=O)C(=O)N[C@H](C(=O)NCC(=O)N[C@@H](CCCNC(=N)N)C(=O)N[C@@H](CCC(=O)O)C(=O)N[C@H](C(=O)N[C@@H](Cc1ccc(O)cc1)C(N)=O)[C@@H](C)O)C(C)C)[C@@H](C)O
As for B3, in assay [1], the “Ratio hCT/hAmylin funct.” value turned out to be 6.5 and the “hAmylin-R funct. EC50 (pM)” value turned out to be 421 pM. For the same molecule, the “hCTR funct. EC50 (pM)” value in assay [2] worked out at 2740 pM. The IC50 in assay [3] was 0.232 nM.

B4: N^ε1-[(4S)-4-carboxy-4-(19-carboxynonadecanoylamino)butanoyl]-[Glu14,Arg17,Pro21,Pro27,His34,Glu35]-h-amylin (peptide)
peptide: K([γGlu-C20 diacid])CNTATCATQRLAEFLRHSSPNFGAIPSSTNVGHETY-NH2
modifications: disulfide 2-7; N-terminus assumed
SMILES: CC[C@H](C)[C@H](NC(=O)[C@H](C)NC(=O)CNC(=O)[C@H](Cc1ccccc1)NC(=O)[C@H](CC(N)=O)NC(=O)[C@@H]1CCCN1C(=O)[C@H](CO)NC(=O)[C@H](CO)NC(=O)[C@H](Cc1c[nH]cn1)NC(=O)[C@H](CCCNC(=N)N)NC(=O)[C@H](CC(C)C)NC(=O)[C@H](Cc1ccccc1)NC(=O)[C@H](CCC(=O)O)NC(=O)[C@H](C)NC(=O)[C@H](CC(C)C)NC(=O)[C@H](CCCNC(=N)N)NC(=O)[C@H](CCC(N)=O)NC(=O)[C@@H](NC(=O)[C@H](C)NC(=O)[C@@H]1CSSC[C@H](NC(=O)[C@@H](N)CCCCNC(=O)CC[C@H](NC(=O)CCCCCCCCCCCCCCCCCCC(=O)O)C(=O)O)C(=O)N[C@@H](CC(N)=O)C(=O)N[C@@H]([C@@H](C)O)C(=O)N[C@@H](C)C(=O)N[C@@H]([C@@H](C)O)C(=O)N1)[C@@H](C)O)C(=O)N1CCC[C@H]1C(=O)N[C@@H](CO)C(=O)N[C@@H](CO)C(=O)N[C@H](C(=O)N[C@@H](CC(N)=O)C(=O)N[C@H](C(=O)NCC(=O)N[C@@H](Cc1c[nH]cn1)C(=O)N[C@@H](CCC(=O)O)C(=O)N[C@H](C(=O)N[C@@H](Cc1ccc(O)cc1)C(N)=O)[C@@H](C)O)C(C)C)[C@@H](C)O
notes: also called compound 107
As to B4, in assay [1], the “Ratio hCT/hAmylin funct.” value worked out at 6.3 and the “hAmylin-R funct. EC50 (pM)” value worked out at 405 pM. The “hCTR funct. EC50 (pM)” value in assay [2] was found to be 2540 pM. In assay [3], the IC50 was found to be 0.387 nM.
